Results: paper PMC3534021, “Structure of the TPR Domain of AIP: Lack of Client Protein Interaction with the C-Terminal α-7 Helix of the TPR Domain of AIP Is Sufficient for Pituitary Adenoma Predisposition” (PLoS ONE, 2012)
Several values for one entry are separate records, joined by “and”; a condition that tells them apart may be missing. Equal entries are not always repeated.

T1: TPR domain of human AIP, R304Q (disease-associated missense mutation) (human)
T1 sequence (O00170 166-330 with R304Q, looked up): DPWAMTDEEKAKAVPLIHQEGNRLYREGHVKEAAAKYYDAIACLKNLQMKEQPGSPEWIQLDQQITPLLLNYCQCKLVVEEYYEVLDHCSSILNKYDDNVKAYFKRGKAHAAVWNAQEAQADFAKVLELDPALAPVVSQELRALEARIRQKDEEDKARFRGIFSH

B1: TPR domain (residues 166–330) of human AIP (aryl hydrocarbon receptor interacting protein), wild type (domain or fragment, UniProt O00170 166-330, looked up)
chain: DPWAMTDEEKAKAVPLIHQEGNRLYREGHVKEAAAKYYDAIACLKNLQMKEQPGSPEWIQLDQQITPLLLNYCQCKLVVEEYYEVLDHCSSILNKYDDNVKAYFKRGKAHAAVWNAQEAQADFAKVLELDPALAPVVSRELRALEARIRQKDEEDKARFRGIFSH
notes: Residues Asp 172 to Arg 325 were visible in the TOMM20 peptide structure; also called AIP TPR-domain; WT

Tests used:
[1] = molecular target: B1; experiment: ITC; twenty 1.9 µL aliquots of peptide (350 to 600 µM) injected into 30 µM AIP TPR-domain; 20 mM Tris pH 7.5, 5 mM NaCl, 30°C; conditions: both partners purified
[2] = molecular target: TPR domain of human AIP, R304A mutant (human); experiment: as above
[3] = molecular target: T1, TPR domain of human AIP, R304Q (disease-associated missense mutation) (human); experiment: as above
HSP90 = HSP90 ATPase assay; assay type: biochemical; conditions: 20-fold molar excess of full-length AIP
full-length human HSP90β [4] = molecular target: T2, full-length human HSP90β (human, UniProt P08238 1-724); experiment: ITC; twenty 1.9 µL aliquots of AIP TPR-domain at 350 µM injected into 30 µM human HSP90β; 20 mM Tris pH 7.5, 5 mM NaCl, 30°C; conditions: both partners purified
T2 construct: HSP90β, human, full length; also called FL-hHSP90β; intact HSP90

full-length human HSP90β [5] = molecular target: T2, full-length human HSP90β; experiment: as above; conditions: both partners purified; remark: listed apart in the source

T2 sequence (P08238 whole entry): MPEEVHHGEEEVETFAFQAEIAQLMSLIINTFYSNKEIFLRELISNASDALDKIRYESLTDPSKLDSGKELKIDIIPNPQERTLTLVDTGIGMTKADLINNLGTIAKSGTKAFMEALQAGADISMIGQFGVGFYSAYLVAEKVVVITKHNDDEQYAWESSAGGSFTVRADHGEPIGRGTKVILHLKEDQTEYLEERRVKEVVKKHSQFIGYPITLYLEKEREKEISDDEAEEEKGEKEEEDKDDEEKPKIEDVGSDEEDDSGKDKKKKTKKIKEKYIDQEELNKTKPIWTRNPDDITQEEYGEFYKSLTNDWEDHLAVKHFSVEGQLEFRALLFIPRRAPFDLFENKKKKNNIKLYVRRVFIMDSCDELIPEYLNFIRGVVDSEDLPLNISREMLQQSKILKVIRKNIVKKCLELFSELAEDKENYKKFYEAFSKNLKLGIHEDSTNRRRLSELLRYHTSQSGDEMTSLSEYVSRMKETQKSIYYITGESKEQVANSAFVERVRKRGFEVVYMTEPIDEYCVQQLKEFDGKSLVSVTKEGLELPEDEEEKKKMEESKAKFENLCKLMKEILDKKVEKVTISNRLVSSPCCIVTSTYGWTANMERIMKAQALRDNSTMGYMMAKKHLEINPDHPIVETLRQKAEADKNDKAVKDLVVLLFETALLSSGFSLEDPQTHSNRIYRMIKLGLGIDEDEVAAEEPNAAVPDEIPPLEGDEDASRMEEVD

Kd [1]	dH [1]	stoichiometry N [1]	Kd [2] [µM]	dH [2] [kcal/mol]	stoichiometry N [2]	Kd [3] [µM]	dH [3] [kcal/mol]	stoichiometry N [3]	stoichiometry N (full-length human HSP90β [4])	Kd (full-length human HSP90β [5]) [µM]	dH (full-length human HSP90β [5]) [kcal/mol]	stoichiometry N (full-length human HSP90β [5])	Molecule	Effect on the ATPase activity of HSP90 (HSP90)
9.5 ± 0.6 µM	-3.53 kcal/mol	1.2	–	–	–	–	–	–	–	–	–	–	DDTSRMEEVD (extreme C-terminus of human HSP90α) [DDTSRMEEVD peptide (human HSP90α C-terminus)]	–
12.3 ± 0.5 µM	-6.77 kcal/mol	0.87	16.6	-4.51	0.69	22.5	-6.07	0.66	–	–	–	–	AQSLAEDDVE (extreme C-terminus of human TOMM20; Only AEDDVE was visible in the crystal structure) [AQSLAEDDVE peptide (human TOMM20 C-terminus)]	–
18.1 ± 1.9 µM	-6.35 kcal/mol	0.63	22.8	-5.46	0.66	31.1	-5.5	0.84	–	–	–	–	GSGPTIEEVD (C-terminus of human HSP70; also called HSP70 peptide) [GSGPTIEEVD peptide (human HSP70 C-terminus)]	–
–	–	–	–	–	–	–	–	–	–	–	–	–	full-length AIP: full-length aryl hydrocarbon receptor interacting protein, tested on HSP90 ATPase activity (protein, UniProt O00170 1-330, looked up, full-length) MADIIARLREDGIQKRVIQEGRGELPDFQDGTKATFHYRTLHSDDEGTVLDDSRARGKPMELIIGKKFKLPVWETIVCTMREGEIAQFLCDIKHVVLYPLVAKSLRNIAVGKDPLEGQRHCCGVAQMREHSSLGHADLDALQQNPQPLIFHMEMLKVESPGTYQQDPWAMTDEEKAKAVPLIHQEGNRLYREGHVKEAAAKYYDAIACLKNLQMKEQPGSPEWIQLDQQITPLLLNYCQCKLVVEEYYEVLDHCSSILNKYDDNVKAYFKRGKAHAAVWNAQEAQADFAKVLELDPALAPVVSRELRALEARIRQKDEEDKARFRGIFSH	did not influence
18.6 µM and 14.4 µM	-5.04 kcal/mol and -3.92 kcal/mol	1.2 and 1.1	15.6	-6.44	0.96	16.2	-6.42	0.98	–	–	–	–	EDASRMEEVD (extreme C-terminus of human HSP90β; Only SRMEEVD was visible in the crystal structure) [EDASRMEEVD peptide (human HSP90β C-terminus)]	–
12.6 ± 1.6 µM	-4.14 kcal/mol	1	–	–	–	–	–	–	–	–	–	–	MEEVD (extreme C-terminal five residues of HSP90; also called MEEVD (HSP90)) [MEEVD peptide (HSP90)]	–
64.5 ± 3.2 µM	-4.42 kcal/mol	0.89	–	–	–	–	–	–	–	–	–	–	TLEELDW (also called TLEELDW (hPDE4A5); PDE4A5 peptide) [TLEELDW peptide (PDE4A5)]	–
–	–	–	–	–	–	–	–	–	0.5	13.3 ± 1.8	-4.55	0.3	B1	–
